Reference: patent US6632672

Target: T1, phiC31 integrase (Streptomyces phage phiC31) (UniProt Q9T221)
T1 sequence: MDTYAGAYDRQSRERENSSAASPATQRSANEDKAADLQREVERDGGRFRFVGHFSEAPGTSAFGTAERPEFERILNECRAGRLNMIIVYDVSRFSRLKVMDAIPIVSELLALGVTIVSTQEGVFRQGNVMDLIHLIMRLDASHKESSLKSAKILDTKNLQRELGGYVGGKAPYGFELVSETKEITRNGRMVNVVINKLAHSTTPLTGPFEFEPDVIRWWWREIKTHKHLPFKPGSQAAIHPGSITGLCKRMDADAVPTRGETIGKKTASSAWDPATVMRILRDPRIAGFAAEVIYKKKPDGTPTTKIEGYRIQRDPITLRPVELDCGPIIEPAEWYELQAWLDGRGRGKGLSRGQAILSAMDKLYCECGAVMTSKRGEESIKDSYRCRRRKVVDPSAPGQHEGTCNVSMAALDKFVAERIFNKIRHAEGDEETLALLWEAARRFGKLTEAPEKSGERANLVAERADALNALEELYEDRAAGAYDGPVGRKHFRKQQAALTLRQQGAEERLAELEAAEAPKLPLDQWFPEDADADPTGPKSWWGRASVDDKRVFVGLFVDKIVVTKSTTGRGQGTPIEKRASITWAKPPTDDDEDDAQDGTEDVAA
Assay: cell_activity

attB34 showed a binding signal (E. coli, relative to full-length attB) of 100%.
In the case of attB full length (pBCPB+), the activity (bimolecular integration of attP donor into EBV plasmid in human 293 cells, corrected for transfection) is reported as 7.5% and the activity (intramolecular integration with attP in E. coli, all colonies white) is reported as 100%.
attP full length (221 bp) was tested, and the activity (intramolecular attB x attP recombination in human 293 cells, SE 2.32%, 16 experiments) was 50.6% and the activity (intramolecular integration with attB in E. coli, all colonies white) was 100%.
